Changes are numbered by the printed parent chain.
Biological target: α-cobratoxin (Naja kaouthia, UniProt P01391)
Sequence (P01391 whole entry): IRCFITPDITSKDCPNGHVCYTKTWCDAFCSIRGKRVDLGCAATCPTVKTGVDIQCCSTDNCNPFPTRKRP

B1: anti-α-cobratoxin VHH C2 (VHH)
VHH: QVKLEESGGGLVLPGGSLRLSCAASGSISSIYAMGWYRQAPGKQREVVAVITNGNSPNYADSVKGRFTISRDNAKNTVYLQMNSLKPEDTAVYYCNVEGVRYGDSWYDGDYWGQGTQVTVSS
For B1, the Kd was 0.0004 µM, the koff was 0.00019 s⁻¹ and the kon was 520000 M⁻¹ s⁻¹.

B2: anti-α-cobratoxin VHH C43 (VHH)
VHH: B1 VHH with Q1R, L13Q, P14A, A24V, I28T, S29F, S30D, I31D, M34I
With B2 the Kd was 0.024 µM, the koff was 0.0068 s⁻¹ and the kon was 290000 M⁻¹ s⁻¹.

B3: anti-α-cobratoxin VHH C19 (VHH)
VHH: QVKLEESGGGLAQAGGSLRLSCIGSGDISSFNAMGWYRQVPGKQRELVAFISSGGRSKYTDSVKGRFTISGDNAKNTVYLQMIDLKPEDTAVYYCNAGSVVSYETGNYYEPSNYWGQGTQVTVSS
B3 showed a Kd of 0.025 µM, a koff of 0.01 s⁻¹ and a kon of 580000 M⁻¹ s⁻¹.

B4: anti-α-cobratoxin VHH C20 (VHH)
VHH: QVKLEESGGGLVQPGGSLRLSCVGSGSISSFNGMGWYRQVPGKQRELVAFISSGGRSKYTDSVKGRFTISGDNAKSTVYLQMINLKPEDTAVYYCNVGSVLSYVTGNYYEPSDYWGQGTQVTVSS
B4 gave a Kd of 0.001 µM, a koff of 0.0017 s⁻¹ and a kon of 1.8e+06 M⁻¹ s⁻¹.

— patent publication US20120003245A1 (UNIVERSITY OF GUELPH, published 2012)
